Substrate in data set [1]: NCCCCC(=O)O
The data set can be described thus: purified protein. The conditions noted are these: co-substrate 5 mM pyruvate (assumed saturating), 2.5 mM NAD+, 5 uM PLP, sodium carbonate buffer pH 10, 30 C. The format is biochemical, Cupriavidus necator.

Substrate in data set [2]: CC(N)CC(=O)O
Nature of the data set: purified protein. Format: biochemical, Cupriavidus necator. The conditions noted are these: co-substrate 5 mM pyruvate (assumed saturating), 2.5 mM NAD+, 5 uM PLP, sodium carbonate buffer pH 10, 30 C.

B1: CnAptA (Cupriavidus necator H16) (protein)
chain: MDAAKTVIPDLDALWMPFTANRQYKAAPRLLASASGMYYTTHDGRQILDGCAGLWCVAAGHCRTEIAEAVARQAATLDYAPPFQMGHPLSFEAATKVAAIMPQGLDRIFFTNSGSESVDTALKIALAYHRARGEGQRTRFIGRERGYHGVGFGGMAVGGIGPNRKAFSANLMPGTDHLPATLNIAEAAFSKGQPQWGAHLADELERILALHDPSNVAAVIVEPLAGSAGVLVPPVGYLEKLREITSKHGILLIFDEVITAFGRLGAATAAERFKVTPDLITMAKAINNAAVPMGAVAVRREVHDTVVNSAAPGAIELLHGYTYSGHPLAAAAAIATLDLYQRENLFGRAAELAPVFEAAVHGVRGAPHVKDIRNYGLVAGIELEPRPGQPGARAYEAFLKCLELGVLVRYTGDILAFSPPLIISEAQIGELFDTVKKALQDIK
notes: E. coli ER2566 host; 47 kDa
Consider B1, for which the Km amounted to 930 µM in data set [1] and 1300 µM in data set [2].

In general, Km refers to the concentration of substrate that gives half-maximal velocity.

The values are drawn from publication PMC7427744, “Using singular perturbation theory to determine kinetic parameters in a non-standard coupled enzyme assay” (Journal of Mathematical Biology, 2020).
